According to US20250312499A1, “KISSPEPTIN RECEPTOR (KISS1R) TARGETED THERAPEUTICS AND USES THEREOF” (priority 2024, published 2025):
Numbered stars: 1 amine (or outer) side, 2 acyl side, 3 side chain; on linkers, the order of the positions; unused ones are H or OH. Square brackets hold non-standard residues; d marks the D form. * marks the point of attachment. X2 = 4‑amino‑1‑((3-fluoro-4-methylbenzyl)glycyl)piperidine‑4‑carboxylic acid, Cc1ccc(CN(CC(=O)N2CCC(N[*:1])(C(=O)[*:2])CC2)[*:3])cc1F; X7 = 4‑amino‑1‑(N-methylcarbamimidoyl)piperidine‑4‑carboxylic acid, CNC(=N)N1CCC(N[*:1])(C(=O)[*:2])CC1; DOTA = O=C(O)CN1CCN(CC(=O)O)CCN(CC(=O)*)CCN(CC(=O)O)CC1; Phe(4-CN) = N#Cc1ccc(C[C@H](N)C(=O)O)cc1; Phe(3-F) = N[C@@H](Cc1cccc(F)c1)C(=O)O; 2Nal = N[C@@H](Cc1ccc2ccccc2c1)C(=O)O; 4Pal = N[C@@H](Cc1ccncc1)C(=O)O; NH‑glycol = not defined here; 4Amb = NCc1ccc(C(=O)O)cc1; ABA = not defined here; APM = not defined here; Ahx = NCCCCCC(=O)O; azaGly = NNC(=O)O

B1: Compound 26 (peptide)
peptide: {DOTA-Ahx}-NTF[azaGly]L[X2]W-NH2
SMILES: Cc1ccc(CNCC(=O)N2CCC(NC(=O)[C@H](CC(C)C)NC(=O)NNC(=O)[C@H](Cc3ccccc3)NC(=O)[C@@H](NC(=O)[C@H](CC(N)=O)NC(=O)CCCCCNC(=O)CN3CCN(CC(=O)O)CCN(CC(=O)O)CCN(CC(=O)O)CC3)[C@@H](C)O)(C(=O)N[C@@H](Cc3c[nH]c4ccccc34)C(N)=O)CC2)cc1F
B2: Compound 27 (peptide)
peptide: {DOTA-Ahx}-[dY]KNT[Phe(3-F)][azaGly]L[X2]W-NH2
SMILES: Cc1ccc(CNCC(=O)N2CCC(NC(=O)[C@H](CC(C)C)NC(=O)NNC(=O)[C@H](Cc3cccc(F)c3)NC(=O)[C@@H](NC(=O)[C@H](CC(N)=O)NC(=O)[C@H](CCCCN)NC(=O)[C@@H](Cc3ccc(O)cc3)NC(=O)CCCCCNC(=O)CN3CCN(CC(=O)O)CCN(CC(=O)O)CCN(CC(=O)O)CC3)[C@@H](C)O)(C(=O)N[C@@H](Cc3c[nH]c4ccccc34)C(N)=O)CC2)cc1F
B3: Compound 30 (peptide)
peptide: {DOTA-Ahx}-[dW]NTF[azaGly]L[X2]W-NH2
SMILES: Cc1ccc(CNCC(=O)N2CCC(NC(=O)[C@H](CC(C)C)NC(=O)NNC(=O)[C@H](Cc3ccccc3)NC(=O)[C@@H](NC(=O)[C@H](CC(N)=O)NC(=O)[C@@H](Cc3c[nH]c4ccccc34)NC(=O)CCCCCNC(=O)CN3CCN(CC(=O)O)CCN(CC(=O)O)CCN(CC(=O)O)CC3)[C@@H](C)O)(C(=O)N[C@@H](Cc3c[nH]c4ccccc34)C(N)=O)CC2)cc1F
B4: Compound 32 (peptide)
peptide: {DOTA-Ahx}-[dY][dH][dW]NTF[azaGly]L[X2]W-NH2
SMILES: Cc1ccc(CNCC(=O)N2CCC(NC(=O)[C@H](CC(C)C)NC(=O)NNC(=O)[C@H](Cc3ccccc3)NC(=O)[C@@H](NC(=O)[C@H](CC(N)=O)NC(=O)[C@@H](Cc3c[nH]c4ccccc34)NC(=O)[C@@H](Cc3c[nH]cn3)NC(=O)[C@@H](Cc3ccc(O)cc3)NC(=O)CCCCCNC(=O)CN3CCN(CC(=O)O)CCN(CC(=O)O)CCN(CC(=O)O)CC3)[C@@H](C)O)(C(=O)N[C@@H](Cc3c[nH]c4ccccc34)C(N)=O)CC2)cc1F
B5: Compound 35 (peptide)
peptide: {DOTA-Ahx}-[dY]WNT[Phe(3-F)][azaGly]L[X2]W-NH2
SMILES: Cc1ccc(CNCC(=O)N2CCC(NC(=O)[C@H](CC(C)C)NC(=O)NNC(=O)[C@H](Cc3cccc(F)c3)NC(=O)[C@@H](NC(=O)[C@H](CC(N)=O)NC(=O)[C@H](Cc3c[nH]c4ccccc34)NC(=O)[C@@H](Cc3ccc(O)cc3)NC(=O)CCCCCNC(=O)CN3CCN(CC(=O)O)CCN(CC(=O)O)CCN(CC(=O)O)CC3)[C@@H](C)O)(C(=O)N[C@@H](Cc3c[nH]c4ccccc34)C(N)=O)CC2)cc1F
B6: Compound 36 (peptide)
peptide: {DOTA-Ahx}-[dY]ENT[Phe(3-F)][azaGly]L[X2]W-NH2
SMILES: Cc1ccc(CNCC(=O)N2CCC(NC(=O)[C@H](CC(C)C)NC(=O)NNC(=O)[C@H](Cc3cccc(F)c3)NC(=O)[C@@H](NC(=O)[C@H](CC(N)=O)NC(=O)[C@H](CCC(=O)O)NC(=O)[C@@H](Cc3ccc(O)cc3)NC(=O)CCCCCNC(=O)CN3CCN(CC(=O)O)CCN(CC(=O)O)CCN(CC(=O)O)CC3)[C@@H](C)O)(C(=O)N[C@@H](Cc3c[nH]c4ccccc34)C(N)=O)CC2)cc1F
B7: Compound 55 (peptide)
peptide: {DOTA-Ahx}-F[azaGly]L[X2]F-NH2
SMILES: Cc1ccc(CNCC(=O)N2CCC(NC(=O)[C@H](CC(C)C)NC(=O)NNC(=O)[C@H](Cc3ccccc3)NC(=O)CCCCCNC(=O)CN3CCN(CC(=O)O)CCN(CC(=O)O)CCN(CC(=O)O)CC3)(C(=O)N[C@@H](Cc3ccccc3)C(N)=O)CC2)cc1F
B8: Compound 2 (peptide)
peptide: {DOTA-Ahx}-F[azaGly]L[X2]W-NH2
SMILES: Cc1ccc(CNCC(=O)N2CCC(NC(=O)[C@H](CC(C)C)NC(=O)NNC(=O)[C@H](Cc3ccccc3)NC(=O)CCCCCNC(=O)CN3CCN(CC(=O)O)CCN(CC(=O)O)CCN(CC(=O)O)CC3)(C(=O)N[C@@H](Cc3c[nH]c4ccccc34)C(N)=O)CC2)cc1F
B9: Compound 91 (peptide)
peptide: {DOTA-Ahx}-[dY][dW]NTF[azaGly]L[X7]W-NH2
SMILES: CNC(=N)N1CCC(NC(=O)[C@H](CC(C)C)NC(=O)NNC(=O)[C@H](Cc2ccccc2)NC(=O)[C@@H](NC(=O)[C@H](CC(N)=O)NC(=O)[C@@H](Cc2c[nH]c3ccccc23)NC(=O)[C@@H](Cc2ccc(O)cc2)NC(=O)CCCCCNC(=O)CN2CCN(CC(=O)O)CCN(CC(=O)O)CCN(CC(=O)O)CC2)[C@@H](C)O)(C(=O)N[C@@H](Cc2c[nH]c3ccccc23)C(N)=O)CC1
B10: Compound 104 (peptide)
peptide: {DOTA-Ahx}-[dY][dW]NTF[azaGly]L[X2][Phe(4-CN)]-NH2
SMILES: Cc1ccc(CNCC(=O)N2CCC(NC(=O)[C@H](CC(C)C)NC(=O)NNC(=O)[C@H](Cc3ccccc3)NC(=O)[C@@H](NC(=O)[C@H](CC(N)=O)NC(=O)[C@@H](Cc3c[nH]c4ccccc34)NC(=O)[C@@H](Cc3ccc(O)cc3)NC(=O)CCCCCNC(=O)CN3CCN(CC(=O)O)CCN(CC(=O)O)CCN(CC(=O)O)CC3)[C@@H](C)O)(C(=O)N[C@@H](Cc3ccc(C#N)cc3)C(N)=O)CC2)cc1F
B11: Compound 105 (peptide)
peptide: {DOTA-Ahx}-[dY][dW]NTF[azaGly]L[X2][4Pal]-NH2
SMILES: Cc1ccc(CNCC(=O)N2CCC(NC(=O)[C@H](CC(C)C)NC(=O)NNC(=O)[C@H](Cc3ccccc3)NC(=O)[C@@H](NC(=O)[C@H](CC(N)=O)NC(=O)[C@@H](Cc3c[nH]c4ccccc34)NC(=O)[C@@H](Cc3ccc(O)cc3)NC(=O)CCCCCNC(=O)CN3CCN(CC(=O)O)CCN(CC(=O)O)CCN(CC(=O)O)CC3)[C@@H](C)O)(C(=O)N[C@@H](Cc3ccncc3)C(N)=O)CC2)cc1F
B12: Compound 106 (peptide)
peptide: {DOTA-Ahx}-[dY]N[dW]NTF[azaGly]L[X2][4Pal]-NH2
SMILES: Cc1ccc(CNCC(=O)N2CCC(NC(=O)[C@H](CC(C)C)NC(=O)NNC(=O)[C@H](Cc3ccccc3)NC(=O)[C@@H](NC(=O)[C@H](CC(N)=O)NC(=O)[C@@H](Cc3c[nH]c4ccccc34)NC(=O)[C@H](CC(N)=O)NC(=O)[C@@H](Cc3ccc(O)cc3)NC(=O)CCCCCNC(=O)CN3CCN(CC(=O)O)CCN(CC(=O)O)CCN(CC(=O)O)CC3)[C@@H](C)O)(C(=O)N[C@@H](Cc3ccncc3)C(N)=O)CC2)cc1F
B13: Compound 107 (peptide)
peptide: {DOTA-Ahx}-[dY][dH][dW]NTF[azaGly]L[X2][4Pal]-NH2
SMILES: Cc1ccc(CNCC(=O)N2CCC(NC(=O)[C@H](CC(C)C)NC(=O)NNC(=O)[C@H](Cc3ccccc3)NC(=O)[C@@H](NC(=O)[C@H](CC(N)=O)NC(=O)[C@@H](Cc3c[nH]c4ccccc34)NC(=O)[C@@H](Cc3c[nH]cn3)NC(=O)[C@@H](Cc3ccc(O)cc3)NC(=O)CCCCCNC(=O)CN3CCN(CC(=O)O)CCN(CC(=O)O)CCN(CC(=O)O)CC3)[C@@H](C)O)(C(=O)N[C@@H](Cc3ccncc3)C(N)=O)CC2)cc1F
B14: Compound 108 (peptide)
peptide: {DOTA-Ahx}-[dY][azaGly]NTF[azaGly]L[X2]W-NH2
SMILES: Cc1ccc(CNCC(=O)N2CCC(NC(=O)[C@H](CC(C)C)NC(=O)NNC(=O)[C@H](Cc3ccccc3)NC(=O)[C@@H](NC(=O)[C@H](CC(N)=O)NC(=O)NNC(=O)[C@@H](Cc3ccc(O)cc3)NC(=O)CCCCCNC(=O)CN3CCN(CC(=O)O)CCN(CC(=O)O)CCN(CC(=O)O)CC3)[C@@H](C)O)(C(=O)N[C@@H](Cc3c[nH]c4ccccc34)C(N)=O)CC2)cc1F
B15: Compound 109 (peptide)
peptide: {DOTA-4Amb}-F[azaGly]L[X2]W-NH2
SMILES: Cc1ccc(CNCC(=O)N2CCC(NC(=O)[C@H](CC(C)C)NC(=O)NNC(=O)[C@H](Cc3ccccc3)NC(=O)c3ccc(CNC(=O)CN4CCN(CC(=O)O)CCN(CC(=O)O)CCN(CC(=O)O)CC4)cc3)(C(=O)N[C@@H](Cc3c[nH]c4ccccc34)C(N)=O)CC2)cc1F

target: human kisspeptin receptor (KISS1R) (human), Q969F8; test: radioligand competition, hKISS1R membranes; legend: A is <10 nM
Sequence (Q969F8 whole entry): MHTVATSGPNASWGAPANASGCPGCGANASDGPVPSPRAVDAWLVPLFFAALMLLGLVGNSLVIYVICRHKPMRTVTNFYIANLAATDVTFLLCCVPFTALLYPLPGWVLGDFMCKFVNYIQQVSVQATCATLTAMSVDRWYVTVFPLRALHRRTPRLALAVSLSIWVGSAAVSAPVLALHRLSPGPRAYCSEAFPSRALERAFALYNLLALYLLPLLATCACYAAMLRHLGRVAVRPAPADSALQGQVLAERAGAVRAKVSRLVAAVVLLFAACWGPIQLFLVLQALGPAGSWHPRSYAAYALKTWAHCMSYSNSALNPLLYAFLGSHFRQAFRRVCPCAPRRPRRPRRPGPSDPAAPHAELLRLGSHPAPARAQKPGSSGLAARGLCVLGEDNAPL

Ki, < 10 nM:
B1
B2
{DOTA-APM}-F[azaGly]L[X2]W-NH2 (reading uncertain) [Compound 28]
B3
B4
{DOTA-APM}-[dY][dH][dW]NTF[azaGly]L[X2]W-NH2 (reading uncertain) [Compound 33]
{DOTA-APM}-[dY][dW]NT[Phe(3-F)][azaGly]L[X2]W-NH2 (reading uncertain) [Compound 34]
B5
B6
{DOTA}-KF[azaGly]L[X2]W-NH2 [Compound 37]
{DOTA-ABA}-F[azaGly]L[X2]W-NH2 (reading uncertain) [Compound 50]
B7
{DOTA-NH‑glycol}-[dY][dW]NTF[azaGly]L[X2]W-NH2 (reading uncertain) [Compound 57]
{DOTA-NH‑glycol}-[dY][2Nal]NTF[azaGly]L[X2]W-NH2 (reading uncertain) [Compound 58]
{HO‑PEG3‑C(:O)}-[dY]K(DOTA)NT[Phe(3-F)][azaGly]L[X2]W-NH2 [Compound 64]
B8
B9
B10
B11
B12
B13
B14
B15
